Series [1] has as its target T1, Interleukin-6 (IL-6) ((aptamer stated to be specific to mouse IL-6)) (UniProt P08505).
T1 sequence: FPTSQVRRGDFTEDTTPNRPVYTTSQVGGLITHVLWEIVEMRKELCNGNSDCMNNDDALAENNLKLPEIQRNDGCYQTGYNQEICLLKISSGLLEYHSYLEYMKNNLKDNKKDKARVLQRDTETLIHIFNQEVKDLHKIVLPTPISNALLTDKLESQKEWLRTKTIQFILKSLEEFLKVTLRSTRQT
Kind of series: GFET (graphene field-effect transistor), Hill-Langmuir fit, n = 0.3. The note with it: pH ~3.64, 2 mM MgCl2; 5' amine coupled to 1-pyrenebutyric acid NHS ester (5' pyrene); 0.01x PBS with 2 mM MgCl2, pH ~7.4 (or adjusted to ~3.64), 10 min exposure per concentration, temperature not stated; aptamer immobilized on graphene.

The target of series [2] is T1, Interleukin-6 (IL-6) ((aptamer stated to be specific to mouse IL-6)). Kind of series: manufacturer value. The note with it: 5' amine; 0.01x PBS with 2 mM MgCl2, pH ~7.4 (or adjusted to ~3.64), 10 min exposure per concentration, temperature not stated; aptamer immobilized on graphene; cited from earlier work.

What is called Kd is the equilibrium constant for the complex coming apart. In series [1], “IL-6 aptamer ATW0077 (Base Pair Biotechnologies), pyrene-tagged (PTDA)” came in with a dissociation constant (Kd) of 3.4 nM.

On to “IL-6 aptamer ATW0077, as supplied (manufacturer Kd)”, for which, in series [2], the dissociation constant Kd was 5.4 nM.

The values above are taken from article PMC7918451.
